The substances below were run against α3 subunit isoform of Na, K-ATPase (human) (UniProt P13637) (assay: Western blot of control lysate, antibody at 1:2000, chemiluminescence, band density by Alpha DigiDoc 1000).
Substance “α3 monoclonal antibody from Affinity Bioreagents (Golden, Colo.)” has an Average density of 45200. In the case of “α3 monoclonal antibody from Novus (Littleton, Colo.)”, the Average density is reported as 41100. For “α3 monoclonal antibody from Sigma (St Louis, Mo.)”, the Average density was 44600.

Source: patent publication US20100317541A1
